{
  "source": "IntAct's records for PubMed 22439934",
  "parents": {"B1": {"name": "Zinc finger protein GLI1 (Homo sapiens), P08151 (parent)", "chain": "MFNSMTPPPISSYGEPCCLRPLPSQGAPSVGTEGLSGPPFCHQANLMSGPHSYGPARETNSCTEGPLFSSPRSAVKLTKKRALSISPLSDASLDLQTVIRTSPSSLVAFINSRCTSPGGSYGHLSIGTMSPSLGFPAQMNHQKGPSPSFGVQPCGPHDSARGGMIPHPQSRGPFPTCQLKSELDMLVGKCREEPLEGDMSSPNSTGIQDPLLGMLDGREDLEREEKREPESVYETDCRWDGCSQEFDSQEQLVHHINSEHIHGERKEFVCHWGGCSRELRPFKAQYMLVVHMRRHTGEKPHKCTFEGCRKSYSRLENLKTHLRSHTGEKPYMCEHEGCSKAFSNASDRAKHQNRTHSNEKPYVCKLPGCTKRYTDPSSLRKHVKTVHGPDAHVTKRHRGDGPLPRAPSISTVEPKREREGGPIREESRLTVPEGAMKPQPSPGAQSSCSSDHSPAGSAANTDSGVEMTGNAGGSTEDLSSLDEGPCIAGTGLSTLRRLENLRLDQLHQLRPIGTRGLKLPSLSHTGTTVSRRVGPPVSLERRSSSSSSISSAYTVSRRSSLASPFPPGSPPENGASSLPGLMPAQHYLLRARYASARGGGTSPTAASSLDRIGGLPMPPWRSRAEYPGYNPNAGVTRRASDPAQAADRPAPARVQRFKSLGCVHTPPTVAGGGQNFDPYLPTSVYSPQPPSITENAAMDARGLQEEPEVGTSMVGSGLNPYMDFPPTDTLGYGGPEGAAAEPYGARGPGSLPLGPGPPTNYGPNPCPQQASYPDPTQETWGEFPSHSGLYPGPKALGGTYSQCPRLEHYGQVQVKPEQGCPVGSDSTGLAPCLNAHPSEGPPHPQPLFSHYPQPSPPQYLQSGPYTQPPPDYLPSEPRPCLDFDSPTHSTGQLKAQLVCNYVQSQQELLWEGGGREDAPAQEPSYQSPKFLGGSQVSPSRAKAPVNTYGPGFGPNLPNHKSGSYPTPSPCHENFVVGANRASHRAAAPPRLLPPLPTCYGPLKVGGTNPSCGHPEVGRLGGGPALYPPPEGQVCNPLDSLDLDNTQLDFVAILDEPQGLSPPPSHDQRGSSGHTPPPSGPPNMAVGNMSVLLRSLPGETEFLNSSA", "partner": "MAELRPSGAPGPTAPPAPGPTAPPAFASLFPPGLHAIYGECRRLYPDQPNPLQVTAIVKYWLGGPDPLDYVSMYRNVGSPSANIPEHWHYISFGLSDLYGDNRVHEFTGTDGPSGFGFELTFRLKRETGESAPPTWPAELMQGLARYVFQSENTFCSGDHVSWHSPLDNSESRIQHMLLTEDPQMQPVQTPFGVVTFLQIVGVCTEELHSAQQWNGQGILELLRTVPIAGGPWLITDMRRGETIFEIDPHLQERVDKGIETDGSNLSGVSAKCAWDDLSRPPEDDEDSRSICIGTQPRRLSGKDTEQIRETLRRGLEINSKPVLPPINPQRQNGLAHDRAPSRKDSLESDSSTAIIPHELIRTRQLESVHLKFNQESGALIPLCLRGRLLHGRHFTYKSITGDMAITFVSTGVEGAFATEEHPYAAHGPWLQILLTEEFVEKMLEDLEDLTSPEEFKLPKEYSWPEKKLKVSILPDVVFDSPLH"}, "B2": {"name": "Zinc finger protein GLI1 (Homo sapiens), P08151 (parent)", "chain": "B1 chain"}},
  "data": [
    {"variants_of": "B1", "details": "with sufu_human SUFU", "values": [
      {"variant": "S84E", "effect of a mutation on the interaction": "decreasing interaction"}
    ]},
    {"variants_of": "B2", "details": "with RPS6KB1, P23443-2", "values": [
      {"variant": "S84A", "effect of a mutation on the interaction": "disrupting interaction"}
    ]}
  ]
}
